Source: patent publication US20260146093A1 (DREN BIO MANAGEMENT, published 2026)
Each block holds one binder with its values, some of them ahead of it.

Assays:
[1] = biological target: T1, human Dectin-1 isoform A on HEK-Blue hDectin-1a cells (human, UniProt Q9BXN2 1-247); assay: flow cytometry on HEK cells expressing hDectin-1 (sheet title: Binding to HEK Blue Dectin 1a cells)
T1 sequence: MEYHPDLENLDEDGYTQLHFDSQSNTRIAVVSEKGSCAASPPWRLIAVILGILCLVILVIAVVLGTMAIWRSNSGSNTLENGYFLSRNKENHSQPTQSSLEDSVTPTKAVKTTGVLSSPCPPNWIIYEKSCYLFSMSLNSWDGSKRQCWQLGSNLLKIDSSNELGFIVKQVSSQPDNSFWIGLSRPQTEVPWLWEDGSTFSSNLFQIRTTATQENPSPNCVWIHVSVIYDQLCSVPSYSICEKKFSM

[2] = biological target: T1, human Dectin-1 isoform A on HEK-Blue …; assay: cell-based or functional assay
[3] = biological target: T2, human Trop-2 expressed on cells (A-431, NCI-N87, SKBR3, CHO-K1-hTrop2) (human, UniProt P09758 27-323); assay: flow cytometry on CHO-K1 cells expressing hTrop-2 (sheet title: Binding to Chok1 hTrop2)
T2 sequence: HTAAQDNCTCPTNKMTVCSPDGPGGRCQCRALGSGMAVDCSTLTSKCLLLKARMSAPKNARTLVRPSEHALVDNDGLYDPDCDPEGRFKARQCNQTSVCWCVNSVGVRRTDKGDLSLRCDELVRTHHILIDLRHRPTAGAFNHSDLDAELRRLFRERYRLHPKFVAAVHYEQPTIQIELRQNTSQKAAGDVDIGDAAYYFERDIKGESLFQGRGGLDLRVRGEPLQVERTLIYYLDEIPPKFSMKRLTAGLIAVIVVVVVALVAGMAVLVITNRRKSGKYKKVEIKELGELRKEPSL

EC50 (read off the curve) [1]: ~0.7 nM
EC50 of SEAP secretion by the hDectin-1 reporter cells (hDec1 Reporter Assay; the Trop-2-expressing cell line is not named) [2]: 0.62 nM
EC50 (read off the curve) [3]: ~5 nM
B1: Dectin-1 2M24.124 x Trop-2 clone A hIgG1 (bispecific antibody)
anti-Dectin-1 heavy chain: QVQLVQSGAEVKKPGASVKVSCKASGYTFTDYYMHWVRQAPGQGLEWMGWINPNEGDTNYAQKFEGRITMTRDTSISTAYMELSRLRSDDTAVYYCARNTGAYSFGYWGCGTLVTVSS
anti-Dectin-1 light chain: DIQMTQSPSSVSASVGDRVTITCRASQGISSWLAWYQQKPGKCPKLLIYGASDLQSGVPSRFSGSGSGTDFTLTISSLQPEDFATYYCQQAYGFPFTFGPGTKVDIK
anti-Trop-2 heavy chain: QVQLQQSGSELKKPGASVKVSCKASGYTFTNYGMNWVKQAPGQGLKWMGWINTYTGEPTYTDDFKGRFAFSLDTSVSTAYLQISSLKADDTAVYFCARGGFGSSYWYFDVWGQGSLVTVSS
anti-Trop-2 light chain: DIQLTQSPSSLSASVGDRVSITCKASQDVSIAVAWYQQKPGKAPKLLIYSASYRYTGVPDRFSGSGSGTDFTLTISSLQPEDFAVYYCQQHYITPLTFGAGTKVEIK
notes: member of group m9; also called 2M24.124xTrop-2 clone A hG1; disulfide-engineered Fab-format bispecific, clone A

EC50 (read off the curve) [1]: ~0.7 nM
EC50 of SEAP secretion by the hDectin-1 reporter cells (hDec1 Reporter Assay; the Trop-2-expressing cell line is not named) [2]: 0.61 nM
EC50 (read off the curve) [3]: ~7 nM
B2: Dectin-1 2M24.124 x Trop-2 clone B hIgG1 (bispecific antibody)
anti-Dectin-1 heavy chain: B1 anti-Dectin-1 heavy chain
anti-Dectin-1 light chain: B1 anti-Dectin-1 light chain
anti-Trop-2 heavy chain: QVQLQESGPGLVKPSGTLSLTCAVSGGSISSSNWWSWVRQPPGKGLEWIGEIYHDGSTDYFPSLKSRVTISVDKSKNQFSLKLSSVTAADTAVYYCARDNWGFDYWGQGTLVTVSS
anti-Trop-2 light chain: DIVLTQSPGTLSLSPGERATLSCRASQSVSSSYLAWYQQKPGQAPRLLISGASSRATGIPDRFSGSGSGTDFTLTISRLEPEDFAVYYCQQYGSSHRTFGQGTKVEIK
notes: member of group m9; also called 2M24.124xTrop-2 clone B hG1; disulfide-engineered Fab-format bispecific, clone B
